Measurements: US20210395725A1 (EVERCYTE, published 2021)

What was measured:
[1] = target: T1, mouse EGFR-Fc (mouse, UniProt Q01279 25-647, limits assumed, biotinylated with EZ-Link Sulfo-NHS-LC-LC-Biotin); experiment: HEK293-6E cell display flow cytometry; 500 nM biotinylated antigen + streptavidin-Alexa Fluor 647; secondary only 14.11 (same values as in Table 12)
T1 construct: Bought; also called Mouse EGFR-Fc-biotin; biotinylated mouse EGFR-Fc
Experimental: (§1) 1×10⁵ cells have been blocked in 2% BSA-PBS for 30 min on ice and then stained with each 500 nM biotinylated human EGFR-Fc, biotinylated human Her2/neu-Fc and biotinylated mouse EGFR-Fc for 30 min on ice in 2% BSA-PBS. […] Cells were then centrifuged at 300 g, 5 min at 4° C. and re-suspended in 200 μl ice-cold PBS. […] The fluorescence has been determined with Guava EasyCyte flow cytometer.

[2] = target: T2, human EGFR-Fc (human, UniProt P00533 25-645, biotinylated with EZ-Link Sulfo-NHS-LC-LC-Biotin in most assays); experiment: as above
T2 construct: Bought; also called Human EGFR-Fc-biotin; EGFR-Fc-biotin
Experimental: as §1

[3] = target: T3, human Her2/neu-Fc (human, UniProt P04626 23-652, biotinylated with EZ-Link Sulfo-NHS-LC-LC-Biotin); experiment: as above
T3 construct: Bought; also called Human Her2/neu-Fc-biotin; biotinylated human Her2/neu-Fc
Experimental: as §1

[4] = target: T1, mouse EGFR-Fc; experiment: yeast display flow cytometry; mouse EGFR-Fc + streptavidin-Alexafluor 647
[5] = target: T1, mouse EGFR-Fc; experiment: HEK293-6E cell display flow cytometry; 500 nM biotinylated antigen + streptavidin-Alexa Fluor 647; secondary only 14.11
Experimental: as §1

[6] = target: T2, human EGFR-Fc; experiment: as above
Experimental: as §1

[7] = target: T3, human Her2/neu-Fc; experiment: as above
Experimental: as §1

[8] = target: T4, human placental laminin (human); experiment: ELISA; biotinylated laminin 5 µg/ml on streptavidin plate, neat eluted His-tagged protein, anti-pentaHis-HRP
T4 construct: Bought; also called human laminin; laminin-biotin
Experimental: Neat eluted proteins were tested for binding to their cognate antigen and BSA as a control antigen. Streptavidin-activated plates (Immobilizer, NUNC) were coated with biotinylated laminin at 5 μg/ml in PBS for 30 min at RT and blocked with 4% BSA-PBS for 1 h at RT. Eluted proteins were added in 2% BSA-PBS and allowed to bind for 1 h at RT. […] The reaction was stopped with the addition of H₂SO₄ and the absorbance read at 450/620 nm (Table 15).

[9] = target: T1, mouse EGFR-Fc; experiment: HEK293-6E cell display flow cytometry; 500 nM biotinylated antigen + streptavidin-Alexa Fluor 647; secondary only 5.82
Experimental: (§2) 1×10⁵ cells have been blocked in 2% BSA-PBS for 30 min on ice and then stained with each 500 nM biotinylated human EGFR-Fc, biotinylated human Her2/neu-Fc and biotinylated mouse EGFR-Fc for 30 min on ice in 2% BSA-PBS. […] Cells were then centrifuged at 300 g, 5 min at 4° C. and resuspended in 200 μl ice-cold PBS. […] The fluorescence has been determined with Guava EasyCyte flow cytometer.

[10] = target: T2, human EGFR-Fc; experiment: as above
Experimental: as §2

[11] = target: T3, human Her2/neu-Fc; experiment: as above
Experimental: as §2

[12] = target: T3, human Her2/neu-Fc; experiment: flow cytometry, HEK293-6E cell display (pDisplay)
Experimental: as §2, §1

[13] = target: T1, mouse EGFR-Fc; experiment: flow cytometry, HEK293-6E cell display (pDisplay)
Experimental: as §2, §1

[14] = target: T2, human EGFR-Fc; experiment: flow cytometry, HEK293-6E cell display (pDisplay)
Experimental: as §2, §1

[15] = target: T1, mouse EGFR-Fc; experiment: HEK293-6E cell display flow cytometry; 500 nM biotinylated antigen + streptavidin-Alexa Fluor 647; secondary only 2.67
Experimental: as §1

[16] = target: T2, human EGFR-Fc; experiment: as above
Experimental: as §1

[17] = target: T3, human Her2/neu-Fc; experiment: as above
Experimental: as §1

[18] = target: T5, streptavidin-Alexafluor 647 (UniProt P22629 37-163, limits assumed, Alexa Fluor 647 conjugate); experiment: yeast display flow cytometry, secondary reagent only
T5 construct: Secondary detection reagent, tested alone as a control; also called secondary reagent; 2nd
T5 sequence (P22629 37-163 limits assumed): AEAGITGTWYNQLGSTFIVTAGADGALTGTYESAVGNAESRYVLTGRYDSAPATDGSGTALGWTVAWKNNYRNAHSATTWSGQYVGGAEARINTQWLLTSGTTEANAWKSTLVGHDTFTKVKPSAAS

[19] = target: T1, mouse EGFR-Fc; experiment: yeast display flow cytometry, clone 9
[20] = target: T5, streptavidin-Alexafluor 647; experiment: yeast display flow cytometry; secondary reagent only

B1: wild-type human CD81 LEL (other)
chain: FVNKDQIAKDVKQFYDQALQQAVVDDDANNAKAVVKTFHETLDCCGSSTLTALTTSVLKNNLCPSGSNIISNLFKEDCHQKIDDLFSGK
notes: the formats are named in the assay field; The soluble form runs as a dimer in SEC; also called wild-type CD81 LEL; hCD81 LEL
% antigen binding cells [1]: 12.8% | % antigen binding cells [2]: 10.4% | % antigen binding cells [3]: 10.5% | median fluorescence [4]: 9.1 | % antigen binding cells [5]: 12.8% | % antigen binding cells [6]: 10.4% | % antigen binding cells [7]: 10.5%

B2: laminin-binding CD81 LEL mutant L3A_LU1 (designed binder)
chain: FVNKDQIAKDVKQFYDQCLLWACSKRYKYNAKACVKTFHETLDCCGSSTMGNLTECVLIENLCPSGSNIISNLFKEDCHQKIDDLFSGK
A450/620 (average) [8]: 1.7

B3: EGFR-specific CD81 LEL binder L2B_EU1_1 (designed binder)
chain: FVNKDQIAKDVKQFYDQALWWCCVLYKANNACAVVKTFHETLDCCGSSTGRSHTACVLKGNLCPSGSNIISNLFKEDCHQKIDDLFSGK
notes: also called L2BE1_1
% antigen binding cells [9]: 89.3% | % antigen binding cells [10]: 71.1% | % antigen binding cells [11]: 8.17% | binding result [12]: no binding (tested: 500 nM)

B4: anti-Her2/neu directed CD81 LEL clone 81_H2_11 (designed binder)
chain: FVNKDQIAKDVKQFYDQALVNCCYTRAANNACAVVKTFHETLDCCGSSTHYVDTHCVLNRNLCPSGSNIISNLFKEDCHQKIDDLFSGK
notes: also called anti-Her2/neu clone
binding result [13]: no binding (tested: 500 nM) | binding result [14]: no binding (tested: 500 nM) | % antigen binding cells [15]: 5.68% | % antigen binding cells [16]: 5.16% | % antigen binding cells [17]: 44.2%

B5: laminin-binding CD81 LEL mutant L3B_LU1_2 (designed binder)
chain: FVNKDQIAKDVKQFYDQCLKYACKQGDWENAKACVKTFHETLDCCGSSTVANMTRCVLPANLCPSGSNIISNLFKEDCHQKIDDLFSGK
A450/620 (average) [8]: 1.32

B6: laminin-binding CD81 LEL mutant L2A_LU1 (designed binder)
chain: FVNKDQIAKDVKQFYDQALRECCNTFDANNACAVVKTFHETLDCCGSSTTHSSTGCVLFFNLCPSGSNIISNLFKEDCHQKIDDLFSGK
A450/620 (average) [8]: 0.156

B7: CD81 LEL library 1 variant RAN / IWRARRRRS (yeast clones 3, 13, 21 of the mouse EGFR-Fc selection) (designed binder)
chain: FVNKDQIAKDVKQFYDQALQQAVVDDDANNAKAVVKTFHETLDCCGSRANTALTTSVLKNNLCPSGSNIWRARRRRSCHQKIDDLFSGK
notes: also called clone 3; clone 13
binding result [18]: no binding

B8: CD81 LEL library 1 variant VRR / RRPRKRTRS (yeast clones 1, 8, 15 of the mouse EGFR-Fc selection) (designed binder)
chain: FVNKDQIAKDVKQFYDQALQQAVVDDDANNAKAVVKTFHETLDCCGSVRRTALTTSVLKNNLCPSGSNRRPRKRTRSCHQKIDDLFSGK
notes: also called clone 1; clone 8
binding result [18]: no binding

B9: CD81 LEL library 1 variant SSS / SRRWRHRIA (yeast clones 6, 18 of the mouse EGFR-Fc selection) (designed binder)
chain: FVNKDQIAKDVKQFYDQALQQAVVDDDANNAKAVVKTFHETLDCCGSSSSTALTTSVLKNNLCPSGSNSRRWRHRIACHQKIDDLFSGK
notes: also called clone 6; clone 18
binding result [18]: no binding

B10: CD81 LEL library 1 variant ERL / RRSRRRVHD (yeast clones 2, 4, 7, 10, 11, 12, 14, 16, 17, 20, 22, 23 of the mouse EGFR-Fc selection) (designed binder)
chain: FVNKDQIAKDVKQFYDQALQQAVVDDDANNAKAVVKTFHETLDCCGSERLTALTTSVLKNNLCPSGSNRRSRRRVHDCHQKIDDLFSGK
notes: also called clone 2; clone 4
binding result [18]: no binding

B11: CD81 LEL library 1 variant MGN / WWGRRFRVS (yeast clone 9 of the mouse EGFR-Fc selection) (designed binder)
chain: FVNKDQIAKDVKQFYDQALQQAVVDDDANNAKAVVKTFHETLDCCGSMGNTALTTSVLKNNLCPSGSNWWGRRFRVSCHQKIDDLFSGK
median fluorescence [4]: 11.8 | binding result [19]: no binding | median fluorescence [20]: 14.6

B12: CD81 LEL library 1 variant SFS / RRFRKRPGD (yeast clones 5, 19 of the mouse EGFR-Fc selection) (designed binder)
chain: FVNKDQIAKDVKQFYDQALQQAVVDDDANNAKAVVKTFHETLDCCGSSFSTALTTSVLKNNLCPSGSNRRFRKRPGDCHQKIDDLFSGK
notes: also called clone 5; clone 19
binding result [18]: no binding
